Source: publication PMC3155532

Columns and labels:
Details in all cases: remark: other sources report otherwise
[1] = biological target: 3xflag-LRRK2 (leucine rich repeat kinase 2), wild type (UniProt Q5S007); assay: native gel or EMSA; native PAGE of 3xflag-LRRK2 purified from lysates treated with GDP, GTPγS or GMPPCP (10, 100 and 500 µM, 30 minutes at 30°C); silver stain and flag-M2 immunoblot
[2] = biological target: 3xflag-LRRK2 (leucine rich repeat kinase 2), wild type (UniProt Q5S007); assay: SEC; purified 3xflag-LRRK2 (flag-M2 beads, eluted with 3xflag peptide), Superose 6 10/300 GL, 4°C, SEC running buffer with 10 µM GDP or GTPγS; fractions read by flag-M2 dot blot; higher molecular weight peaks also seen
[3] = biological target: 3xflag-LRRK2 (leucine rich repeat kinase 2), wild type (UniProt Q5S007); assay: SEC; cleared HEK293T cell lysates expressing 3xflag-LRRK2, Superose 6 10/300 GL, 4°C, SEC running buffer (25 mM Tris pH 7.4, 150 mM NaCl, 5 mM MgCl2, 0.02% Triton, 1 mM DTT) with 10 µM GDP or GTPγS; fractions read by flag-M2 dot blot

stoichiometry N [1]: 2 | stoichiometry N [2]: 2 | stoichiometry N [3]: 2
Substance: 3xflag-LRRK2 (leucine rich repeat kinase 2), wild type, Q5S007 1-2527
